Data on four molecules can be found in patent US11098105 (Zymeworks, dated 2021).

One assay has as its target Human C1q (human, UniProt P02745 23-245; P02746 28-253; P02747 29-245). Briefly: cell-based or functional assay.
Assay [1] addresses CD16a(158V/V) on NK92 effector cells (UniProt P08637 17-254, limits assumed). Briefly: cell-based or functional assay.
Assay [2] addresses T1, FcγRIIaH (UniProt P12318 36-218).
T1 construct: also called 2aH; 2ah
T1 sequence (looked up): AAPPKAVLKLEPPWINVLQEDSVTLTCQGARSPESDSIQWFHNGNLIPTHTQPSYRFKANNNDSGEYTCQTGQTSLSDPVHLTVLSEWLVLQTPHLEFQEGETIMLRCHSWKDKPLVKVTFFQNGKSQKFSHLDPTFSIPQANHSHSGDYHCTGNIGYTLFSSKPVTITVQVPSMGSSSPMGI
Put plainly: SPR, antibody captured by goat anti-IgG, FcγR injected, equilibrium fit.
Protocol: (§1) Affinity of FcgR to antibody Fc was measured by SPR using a ProteOn XPR36 at 25° C. with PBS containing 3.4 mM EDTA, and 0.05% Tween 20 at pH 7.4 as the running buffer. […] 40 μg/mL of purified rituximab-based antibodies were indirectly captured by injecting at 25 μL/min for 240s (resulting in approx. 500RUs capture) in the ligand direction, following a buffer injection to establish a stable baseline in the analyte direction. FcγRs were subsequently injected at 50 μL/min for 120s with a 180s dissociation phase to obtain a set of binding sensorgrams. Resultant Kd (affinity) values were determined from double-referenced sensorgrams using the Equilibrium Fit model in the Proteon Manager software. Reported values as the mean of two or three independent runs.

Assay [3] has as its target T2, FcγRIIb (UniProt P31994 46-217).
T2 construct: also called 2b; CD32b
T2 sequence (looked up): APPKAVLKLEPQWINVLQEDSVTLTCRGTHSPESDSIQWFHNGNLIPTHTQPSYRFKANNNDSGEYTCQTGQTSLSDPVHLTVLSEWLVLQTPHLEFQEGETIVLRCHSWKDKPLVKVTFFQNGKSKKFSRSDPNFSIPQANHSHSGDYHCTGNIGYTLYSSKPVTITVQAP
The description is as above.
Protocol: as §1

For assay [4], the target named is T3, FcγRIIaR (UniProt P12318 36-218).
T3 construct: also called 2aR; 2ar
T3 sequence (looked up): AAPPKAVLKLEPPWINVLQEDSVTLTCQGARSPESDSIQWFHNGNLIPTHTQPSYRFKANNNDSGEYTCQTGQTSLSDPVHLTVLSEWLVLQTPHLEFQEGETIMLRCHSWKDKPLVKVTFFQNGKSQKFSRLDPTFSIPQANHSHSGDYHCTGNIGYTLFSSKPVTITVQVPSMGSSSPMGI
Described as above.
Protocol: as §1

For the next assay, the target named is T4, FcγRIIIaV (UniProt P08637 17-208).
T4 construct: also called 3aV; 3av
The assay is described as above.

For assay [5], the target named is T5, FcγRIIIaF (UniProt P08637 17-208).
T5 construct: also called 3aF; 3af
The description is as above.
Protocol: as §1

Assay [6] deals with T1, FcγRIIaH. Put plainly: SPR, antibody captured by goat anti-IgG, FcγR injected.
Assay [7] deals with T2, FcγRIIb. The assay is described as above.
The target of assay [8] is T3, FcγRIIaR. Described as above.
In assay [9] the target is T5, FcγRIIIaF. Described as above.

Sequence of Human C1q (P02745 23-245 limits assumed, chain 1 of 3): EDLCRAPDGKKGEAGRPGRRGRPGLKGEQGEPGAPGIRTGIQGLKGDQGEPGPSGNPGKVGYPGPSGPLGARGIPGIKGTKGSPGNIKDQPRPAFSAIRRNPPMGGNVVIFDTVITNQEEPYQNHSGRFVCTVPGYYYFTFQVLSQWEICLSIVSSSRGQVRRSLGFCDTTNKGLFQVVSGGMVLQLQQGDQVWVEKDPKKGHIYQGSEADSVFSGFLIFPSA
Sequence of Human C1q (P02746 28-253 limits assumed, chain 2 of 3): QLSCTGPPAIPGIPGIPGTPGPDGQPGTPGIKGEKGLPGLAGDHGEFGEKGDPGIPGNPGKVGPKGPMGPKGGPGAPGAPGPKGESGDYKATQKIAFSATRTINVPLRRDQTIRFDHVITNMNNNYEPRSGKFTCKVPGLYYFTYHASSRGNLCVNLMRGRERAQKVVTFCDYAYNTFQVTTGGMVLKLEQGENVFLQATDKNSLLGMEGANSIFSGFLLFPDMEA
Sequence of Human C1q (P02747 29-245 limits assumed, chain 3 of 3): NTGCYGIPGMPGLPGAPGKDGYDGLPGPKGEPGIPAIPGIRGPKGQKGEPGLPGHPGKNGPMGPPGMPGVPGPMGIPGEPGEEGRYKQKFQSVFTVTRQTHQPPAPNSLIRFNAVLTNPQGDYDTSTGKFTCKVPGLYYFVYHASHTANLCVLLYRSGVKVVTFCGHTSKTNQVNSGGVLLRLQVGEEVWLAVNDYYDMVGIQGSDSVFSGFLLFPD
Protocol for FcγRIIIaV: as §1

B1: Control WT Rituximab 1261 (antibody, human IgG1, kappa)
heavy 1: QVQLQQPGAELVKPGASVKMSCKASGYTFTSYNMHWVKQTPGRGLEWIGAIYPGNGDTSYNQKFKGKATLTADKSSSTAYMQLSSLTSEDSAVYYCARSTYYGGDWYFNVWGAGTTVTVSAASTKGPSVFPLAPSSKSTSGGTAALGCLVKDYFPEPVTVSWNSGALTSGVHTFPAVLQSSGLYSLSSVVTVPSSSLGTQTYICNVNHKPSNTKVDKKVEPKSCDKTHTCPPCPAPELLGGPSVFLFPPKPKDTLMISRTPEVTCVVVDVSHEDPEVKFNWYVDGVEVHNAKTKPREEQYNSTYRVVSVLTVLHQDWLNGKEYKCKVSNKALPAPIEKTISKAKGQPREPQVYVYPPSRDELTKNQVSLTCLVKGFYPSDIAVEWESNGQPENNYKTTPPVLDSDGSFALVSKLTVDKSRWQQGNVFSCSVMHEALHNHYTQKSLSLSPGK
heavy 2: not shown
light: QIVLSQSPAILSASPGEKVTMTCRASSSVSYIHWFQQKPGSSPKPWIYATSNLASGVPVRFSGSGSGTSYSLTISRVEAEDAATYYCQQWTSNPPTFGGGTKLEIKRTVAAPSVFIFPPSDEQLKSGTASVVCLLNNFYPREAKVQWKVDNALQSGNSQESVTEQDSKDSTYSLSSTLTLSKADYEKHKVYACEVTHQGLSSPVTKSFNRGEC
notes: also called v1261; V1261
With B1, the “CDC EC50 [nM], Daudi cells, 10% normal human serum” value (from here on “CDC EC50 … 10% normal human serum”) in the assay with Human C1q is 2.9 nM. Further, the “CDC Maximum Lysis, Daudi cells, 10% normal human serum” value with Human C1q came to 96 % cell lysis. In [1], the “ADCC EC50 [nM], Daudi cells, NK92/CD16a(158V/V) effector cells” value (from here on “ADCC EC50 [nM], Daudi cells”) was found to be 0.1 nM. For the same molecule, the “ADCC Maximum Lysis, Daudi cells, NK92/CD16a(158V/V) effector cells” value in assay [1] is 66 % cell lysis. The “SPR Ka ratio with respect to wild-type trastuzumab” value (from here on “SPR Ka ratio”) was 1.87 with FcγRIIaH [2]; 1.85 with FcγRIIb [3]; 1.47 in the assay with FcγRIIaR [4]; 1.34 in the assay with FcγRIIIaV; 1.36 in the assay with FcγRIIIaF [5].

B2: AAC9, rituximab-based asymmetric antibody construct (antibody, human IgG1, kappa)
heavy 1: QVQLQQPGAELVKPGASVKMSCKASGYTFTSYNMHWVKQTPGRGLEWIGAIYPGNGDTSYNQKFKGKATLTADKSSSTAYMQLSSLTSEDSAVYYCARSTYYGGDWYFNVWGAGTTVTVSAASTKGPSVFPLAPSSKSTSGGTAALGCLVKDYFPEPVTVSWNSGALTSGVHTFPAVLQSSGLYSLSSVVTVPSSSLGTQTYICNVNHKPSNTKVDKKVEPKSCDKTHTCPPCPAPEDEGGPSVFLFPPKPKDTLMISRTPEVTCVVVDVSHEDPEVKFNWYVDGVEVHNAKTKPREEQYNSTYRVVSVLTVLHQDWLNGKEYKCKVSNKALPAPIEKTISKAKGQPREPQVYVYPPSRDELTKNQVSLTCLVKGFYPSDIAVEWESNGQPENNYKTTPPVLDSDGSFALVSKLTVDKSRWQQGNVFSCSVMHEALHNHYTQKSLSLSPGK
heavy 2: QVQLQQPGAELVKPGASVKMSCKASGYTFTSYNMHWVKQTPGRGLEWIGAIYPGNGDTSYNQKFKGKATLTADKSSSTAYMQLSSLTSEDSAVYYCARSTYYGGDWYFNVWGAGTTVTVSAASTKGPSVFPLAPSSKSTSGGTAALGCLVKDYFPEPVTVSWNSGALTSGVHTFPAVLQSSGLYSLSSVVTVPSSSLGTQTYICNVNHKPSNTKVDKKVEPKSCDKTHTCPPCPAPKRRGGPSVFLFPPKPKDTLMISRTPEVTCVVVDVSHEDPEVKFNWYVDGVEVHNAKTKPREEQYNSTYRVVSVLTVLHQDWLNGKEYKCKVSNKALPAPIEKTISKAKGQPREPQVYVLPPSRDELTKNQVSLLCLVKGFYPSDIAVEWESNGQPENNYLTWPPVLDSDGSFFLYSKLTVDKSRWQQGNVFSCSVMHEALHNHYTQKSLSLSPGK
light: QIVLSQSPAILSASPGEKVTMTCRASSSVSYIHWFQQKPGSSPKPWIYATSNLASGVPVRFSGSGSGTSYSLTISRVEAEDAATYYCQQWTSNPPTFGGGTKLEIKRTVAAPSVFIFPPSDEQLKSGTASVVCLLNNFYPREAKVQWKVDNALQSGNSQESVTEQDSKDSTYSLSSTLTLSKADYEKHKVYACEVTHQGLSSPVTKSFNRGEC
On to B2, for which the “CDC EC50 … 10% normal human serum” value with Human C1q came out at 47.9 nM. Besides, the “CDC Maximum Lysis, Daudi cells, 10% normal human serum” value with Human C1q worked out at 68 % cell lysis. The “SPR Ka ratio” value in the assay with FcγRIIIaV amounted to 0.08. Besides, the binding result with FcγRIIaH [6], with FcγRIIb [7], with FcγRIIaR [8] and with FcγRIIIaF [9] was “no binding” in each case.

B3: AAC11, rituximab-based asymmetric antibody construct (antibody, human IgG1, kappa)
heavy 1: QVQLQQPGAELVKPGASVKMSCKASGYTFTSYNMHWVKQTPGRGLEWIGAIYPGNGDTSYNQKFKGKATLTADKSSSTAYMQLSSLTSEDSAVYYCARSTYYGGDWYFNVWGAGTTVTVSAASTKGPSVFPLAPSSKSTSGGTAALGCLVKDYFPEPVTVSWNSGALTSGVHTFPAVLQSSGLYSLSSVVTVPSSSLGTQTYICNVNHKPSNTKVDKKVEPKSCDKTHTCPPCPAPEDEGGPSVFLFPPKPKDTLMISRTPEVTCVVVDVSHKDPEVKFNWYVDGVEVHNAKTKPREEQYNSTYRVVSVLTVLHQDWLNGKEYKCKVSNKALPAPIEKTISKAKGQPREPQVYVYPPSRDELTKNQVSLTCLVKGFYPSDIAVEWESNGQPENNYKTTPPVLDSDGSFALVSKLTVDKSRWQQGNVFSCSVMHEALHNHYTQKSLSLSPGK
heavy 2: QVQLQQPGAELVKPGASVKMSCKASGYTFTSYNMHWVKQTPGRGLEWIGAIYPGNGDTSYNQKFKGKATLTADKSSSTAYMQLSSLTSEDSAVYYCARSTYYGGDWYFNVWGAGTTVTVSAASTKGPSVFPLAPSSKSTSGGTAALGCLVKDYFPEPVTVSWNSGALTSGVHTFPAVLQSSGLYSLSSVVTVPSSSLGTQTYICNVNHKPSNTKVDKKVEPKSCDKTHTCPPCPAPKRRGGPSVFLFPPKPKDTLMISRTPEVTCVVVDVSHKDPEVKFNWYVDGVEVHNAKTKPREEQYNSTYRVVSVLTVLHQDWLNGKEYKCKVSNKALPAPIEKTISKAKGQPREPQVYVLPPSRDELTKNQVSLLCLVKGFYPSDIAVEWESNGQPENNYLTWPPVLDSDGSFFLYSKLTVDKSRWQQGNVFSCSVMHEALHNHYTQKSLSLSPGK
light: QIVLSQSPAILSASPGEKVTMTCRASSSVSYIHWFQQKPGSSPKPWIYATSNLASGVPVRFSGSGSGTSYSLTISRVEAEDAATYYCQQWTSNPPTFGGGTKLEIKRTVAAPSVFIFPPSDEQLKSGTASVVCLLNNFYPREAKVQWKVDNALQSGNSQESVTEQDSKDSTYSLSSTLTLSKADYEKHKVYACEVTHQGLSSPVTKSFNRGEC
B3: in the assay with Human C1q, the “CDC EC50 … 10% normal human serum” value stood at 51.6 nM. Moreover, in the assay with Human C1q, the “CDC Maximum Lysis, Daudi cells, 10% normal human serum” value came to 63 % cell lysis. Besides, in [1], the “ADCC EC50 [nM], Daudi cells” value is above 100 nM. The binding result with FcγRIIaH [6], in the assay with FcγRIIb [7], with FcγRIIaR [8] and with FcγRIIIaF [9] was “no binding” each time.

B4: AAC12, rituximab-based asymmetric antibody construct (antibody, human IgG1, kappa)
heavy 1: QVQLQQPGAELVKPGASVKMSCKASGYTFTSYNMHWVKQTPGRGLEWIGAIYPGNGDTSYNQKFKGKATLTADKSSSTAYMQLSSLTSEDSAVYYCARSTYYGGDWYFNVWGAGTTVTVSAASTKGPSVFPLAPSSKSTSGGTAALGCLVKDYFPEPVTVSWNSGALTSGVHTFPAVLQSSGLYSLSSVVTVPSSSLGTQTYICNVNHKPSNTKVDKKVEPKSCDKTHTCPPCPAPEDEGGPSVFLFPPKPKDTLMISRTPEVTCVVVDVSHEDPEVKFNWYVDGVEVHNAKTKPREEQYNSTYRVVSVLTVLHQDWLNGKEYKCAVSNKALPAPIEKTISKAKGQPREPQVYVYPPSRDELTKNQVSLTCLVKGFYPSDIAVEWESNGQPENNYKTTPPVLDSDGSFALVSKLTVDKSRWQQGNVFSCSVMHEALHNHYTQKSLSLSPGK
heavy 2: QVQLQQPGAELVKPGASVKMSCKASGYTFTSYNMHWVKQTPGRGLEWIGAIYPGNGDTSYNQKFKGKATLTADKSSSTAYMQLSSLTSEDSAVYYCARSTYYGGDWYFNVWGAGTTVTVSAASTKGPSVFPLAPSSKSTSGGTAALGCLVKDYFPEPVTVSWNSGALTSGVHTFPAVLQSSGLYSLSSVVTVPSSSLGTQTYICNVNHKPSNTKVDKKVEPKSCDKTHTCPPCPAPKRRGGPSVFLFPPKPKDTLMISRTPEVTCVVVDVSHEDPEVKFNWYVDGVEVHNAKTKPREEQYNSTYRVVSVLTVLHQDWLNGKEYKCAVSNKALPAPIEKTISKAKGQPREPQVYVLPPSRDELTKNQVSLLCLVKGFYPSDIAVEWESNGQPENNYLTWPPVLDSDGSFFLYSKLTVDKSRWQQGNVFSCSVMHEALHNHYTQKSLSLSPGK
light: QIVLSQSPAILSASPGEKVTMTCRASSSVSYIHWFQQKPGSSPKPWIYATSNLASGVPVRFSGSGSGTSYSLTISRVEAEDAATYYCQQWTSNPPTFGGGTKLEIKRTVAAPSVFIFPPSDEQLKSGTASVVCLLNNFYPREAKVQWKVDNALQSGNSQESVTEQDSKDSTYSLSSTLTLSKADYEKHKVYACEVTHQGLSSPVTKSFNRGEC
Regarding B4, the “CDC EC50 … 10% normal human serum” value with Human C1q amounted to 54.6 nM. Besides, the “CDC Maximum Lysis, Daudi cells, 10% normal human serum” value with Human C1q worked out at 67 % cell lysis. In addition, the “ADCC EC50 [nM], Daudi cells” value in [1] was found to be 23.1 nM. For the same molecule, in [1], the “ADCC Maximum Lysis, Daudi cells, NK92/CD16a(158V/V) effector cells” value is 20 % cell lysis. Moreover, the “SPR Ka ratio” value with FcγRIIIaV came out at 0.08. Besides, the binding result with FcγRIIaH [6], with FcγRIIb [7], in the assay with FcγRIIaR [8] and with FcγRIIIaF [9] was “no binding” throughout.
